Assays:
[1] = Verification on enzyme activity of HAR: hyoscyamine aldehyde reduction reaction, product identified by high-resolution mass spectrometry; type: biochemical, Atropa belladonna; details: phosphate buffer pH 6.4, 0.2 mM NADPH-4Na, 1 mM hyoscyamine aldehyde, 30 μg HAR protein, 1 h at 37.5° C.
Procedure: The constructed pET28a-HAR plasmid was converted to a prokaryotic expression stain BL21, and a positive clone was screened with PCR to obtain prokaryotic expression engineering bacteria BL21-pET28a-HAR. 100 μL of BL21-pET28a-HAR bacterial liquid was inoculated to a 30 mL of LB liquid medium containing 100 mg/L kanamycin for overnight culture at 37° C. and 200 rpm. Then, a product was respectively inoculated to 400 mL of LB liquid medium according to a ratio of 1 to 50 for activated culture at 37° C. and 200 rpm, and when OD600 was about 0.6, IPTG was added until a final concentration reached 1 mM. Culture was continued for 6 h at 37° C. and 200 rpm. The harvested bacterial liquid was subjected to centrifugation at 8000 rpm, and a supernatant was removed. Then precipitate bacteria were resuspended with a phosphate buffer, subjected to ultrasonication and then purified with a Ni-NTA filler from GE Company to obtain an HAR protein.
A hyoscyamine aldehyde reduction reaction system catalyzed by the HAR was as follows: a phosphate buffer (pH 6.4), 0.2 mM NADPH-4Na, 1 mM hyoscyamine aldehyde and 30 μg of HAR protein were incubated for 1 h at 37.5° C., and a reaction product was identified using a high-resolution mass spectrometer. […]

[2] = test system: Atropa belladonna hairy roots; assay: Content of hyoscyamine in transgenic Atropa belladonna hairy roots with HAR over-expression (HPLC); type: cell-based
Description: In order to study the effect of an HAR gene on tropane alkaloids in Atropa belladonna, a pericycle-specific high-expression vector PMT promoter::HAR was constructed, and an original plasmid was pBI121. Firstly, a 35S promoter on the original plasmid pBI121 was substituted with an AbPMT promoter by using digestion sites HindIII and Xba I; and the AbPMT promoter was subjected to PCR amplification with Atropa belladonna cDNA as a template and sequences as shown in SEQ ID NO. 7 and SEQ ID NO. 8 as primers. Then a GUS gene on the original plasmid was substituted with the HAR gene by using digestion sites BamHI and SacI; and the HAR gene was subjected to PCR amplification with Atropa belladonna cDNA as a template and sequences as shown in SEQ ID NO. 9 and SEQ ID NO. 10 as primers to obtain an HAR plant over-expression vector PMT promoter:: HAR. The primer sequences used were as follows: […]
The hairy roots were harvested after being subjected to shaking culture for 30 d in an MS liquid medium, and a material was freeze-dried to a constant weight in a freeze dryer. […] The alkaloids were dissolved with 1 mL of liquid chromatography grade methanol; the solution was filtered with a filter membrane of 0.22 μm; the content of the alkaloids was determined with HPLC; and a result was an average of three repeated experiments, where an error bar indicated a standard deviation. […]

B1: HAR: Hyoscyamine aldehyde reductase from Atropa belladonna, amino acid sequence SEQ ID NO. 4, encoded by SEQ ID NO. 3 (protein, listed as Atropa belladonna)
chain: MDSSGVLSPFTFSRRATGEEDVRLKVLYCGICHSDLGCIKNEWGWCSYPLVPGHEIVGIATEVGSKVTKFKVGDRVGVGCMVGSCGTCQNCTQNQESYCPEVIMTCASAYPDGTPTYGGFSNQMVANEKFVIRIPNSLPLDAAAPLLCAGSTVYSAMKFYGLCSQGLHLGVVGLGGLGHVAVKFAKAFGMKVTVISTSLGKKEEAINQLGADSFLINTDTEQMQGAMEVMDGIIDTVSALHPIEPLLGLLKSHQGKLIIVGLPNKQPELPVFSLINGRKMIGGSAVGGVKETQEMIDFAAEHNITADIEIVPMDYVNTAMERLEKGDVKFRFVIDVENTLVAAQT
product of the hyoscyamine aldehyde reduction reaction catalyzed by the HAR [1]: a product of the hyoscyamine aldehyde reduction reaction catalyzed by the HAR was hyoscyamine | content of hyoscyamine relative to non-transgenic Atropa belladonna hairy roots ([2]; AbHAR over-expression hairy roots versus non-transgenic hairy roots, same period): 1.83-2.58 times | average content of hyoscyamine in hairy roots ([2]; AbHAR over-expression hairy roots, 30 d shaking culture in MS liquid medium, ordinary hairy roots 2.32 mg/g DW): 4.24-5.98 mg/g DW
